# Test results published in article PMC7094404 (Archives of Biochemistry and Biophysics, 2008).
# B1: SARS-CoV main protease, full-length wild type, C-terminal His6 (enzyme)
# chain: SGFRKMAFPSGKVEGCMVQVTCGTTTLNGLWLDDTVYCPRHVICTAEDMLNPNYEDLLIRKSNHSFLVQAGNVQLRVIGHSMQNCLLRLKVDTSNPKTPKYKFVRIQPGQTFSVLACYNGSPSGVYQCAMRPNHTIKGSFLNGSCGSVGFNIDYDCVSFCYMHHMELPTGVHAGTDLEGKFYGPFVDRQTAQAAGTDTTITLNVLAWLYAAVINGDRWFLNRFTTTLNDFNLVAMKYNYEPLTQDHVDILGPLSAQTGIAVLDMCAALKELLQNGMNGRTILGSTILEDEFTPFDVVRQCSGVTFQ
# Biological target: the molecule itself
# Assay: AUC
protein,measurement,value
B1,Kd,0.08 ± 0.005 µM
same,koff,0.01 ± 0.001 s⁻¹
